From US20260151494A1 (ARO BIOTHERAPEUTICS, published 2026)
Substitutions are numbered along the chain they refer to.

B1: CD71-binding FN3 domain of SEQ ID NO: 123 (designed binder)
chain: MSLPAPKNLVVSRVTEDSARLSWTAPDAAFDSFAIRYWELRATGEAIPLSVPGSERSYDLTGLKPGTEYHVAISGVKGGKSSYPLRASFTT
B2: CD71-binding FN3 domain of SEQ ID NO: 153 (designed binder)
chain: MSLPAPKNLVVSRVTEDSARLSWTAPDAAFDSFYIAYAEPRPDGEAIVLAVPGSERSYDLTGLKPGTEYSVLIHGVKGGLLSSPLGADFTT
B3: CD71-binding FN3 domain of SEQ ID NO: 125 (designed binder)
chain: B2 chain with V48I, A50L, G86H, D88H
B4: CD71-binding FN3 domain of SEQ ID NO: 165 (designed binder)
chain: B2 chain with V48L, A50E, T61A, D88E
B5: CD71-binding FN3 domain of SEQ ID NO: 129 (designed binder)
chain: MGGSLPAPKNLVVSRVTEDSARLSWTAPDAAFDSFEIGYFENLYLGEAIVLTVPGSERSYDLTGLKPGTEYWVQIGGVKGGNWSAPLSAIFTT
B6: CD71-binding FN3 domain of SEQ ID NO: 133 (designed binder)
chain: MSLPAPKNLVVSRVTEDSARLSWTAPDAAFDSFKIKYAEYDRYGEAIALFVPGSERSYDLTGLKPGTEYFVHIDGVKGGTDSQPLVASFTT
B7: CD71-binding FN3 domain of SEQ ID NO: 128 (designed binder)
chain: MSSLPAPKNLVVSRVTEDSARLSWTAPDAAFDSFEIGYFENLYLGEAIVLTVPGSERSYDLTGLKPGTEYWVQIGGVKGGNWSAPLSAIFTT
B8: CD71-binding FN3 domain of SEQ ID NO: 185 (designed binder)
chain: B7 chain with S2G, G37S, F39W, N41H, L42T, Y43F, L44N, V49I, T51F
B9: CD71-binding FN3 domain of SEQ ID NO: 187 (designed binder)
chain: MSLPAPKNLVVSRVTEDSARLSWTAPDAAFDSFEIGYWENAYKGEAIVLTVPGSERSYDLTGLKPGTEYRVWIGGVKGGVWSRPLSAIFTT
B10: CD71-binding FN3 domain of SEQ ID NO: 216 (designed binder)
chain: B9 chain with G36A, W38F, N40Q, A41T, K43T, R70W, W72Q, V80T, R83A, F89S
B11: CD71-binding FN3 domain of SEQ ID NO: 194 (designed binder)
chain: B9 chain with W38F, A41L, K43L, R70P, V80T, R83V, A87T
B12: CD71-binding FN3 domain of SEQ ID NO: 208 (designed binder)
chain: B9 chain with E34F, W38F, A41L, K43L, R70W, W72Q, V80N, R83A
B13: CD71-binding FN3 domain of SEQ ID NO: 217 (designed binder)
chain: B9 chain with G36A, W38F, N40Q, A41T, K43T, R70W, W72A, V80L, R83L
B14: CD71-binding FN3 domain of SEQ ID NO: 211 (designed binder)
chain: MSLPAPKNLVVSRVTEDSARLSWTAPDAAFDSFEIVYAEPVRFGEAIVLTVPGSERSYDLTGLKPGTEYWVQIGGVKGGEWSSLLSAIFTT
B15: CD71-binding FN3 domain of SEQ ID NO: 212 (designed binder)
chain: B9 chain with W38F, A41L, K43L, S57Y, R70W, W72Q, V80N, R83A
B16: CD71-binding FN3 domain of SEQ ID NO: 207 (designed binder)
chain: B9 chain with R70V, W72F, R83V, F89S
B17: CD71-binding FN3 domain of SEQ ID NO: 206 (designed binder)
chain: B9 chain with V11A, W38F, A41L, K43L, R70W, W72Q, V80N, R83A
B18: CD71-binding FN3 domain of SEQ ID NO: 203 (designed binder)
chain: B9 chain with S18F, G36A, N40Q, A41S, K43T, R70F, W72H, R83T
B19: CD71-binding FN3 domain of SEQ ID NO: 205 (designed binder)
chain: MSLPAPKNLVVSRVTEDSARLSWTAPDAAFDSFEIGYFENLYLGEAIHLFVPGSERSYDLTGLKPGTEYNVTIQGVKGGFPSEPLIANFTT
B20: CD71-binding FN3 domain of SEQ ID NO: 199 (designed binder)
chain: B9 chain with W38F, A41L, K43L, S54Y, R70W, W72Q, V80N, R83A
B21: CD71-binding FN3 domain of SEQ ID NO: 188 (designed binder)
chain: B9 chain with R70V, W72F, V80H, W81G, R83Q
B22: CD71-binding FN3 domain of SEQ ID NO: 189 (designed binder)
chain: B9 chain with W38F, N40H, A41T, K43Y, R70W, W72Q, V80N, R83A
B23: CD71-binding FN3 domain of SEQ ID NO: 213 (designed binder)
chain: B9 chain with W38F, A41L, K43L, R70W, W72Q, V76A, V80N, R83A
B24: CD71-binding FN3 domain of SEQ ID NO: 191 (designed binder)
chain: B9 chain with W38F, A41L, K43L, T61A, R70W, W72Q, V80N, R83A
B25: CD71-binding FN3 domain of SEQ ID NO: 214 (designed binder)
chain: MSLPAPKNLVVSRVTEDSARLSWTAPDAAFDSFEIDYGEYSQAGEAIGLLVPGSERSYDLTGLKPGTEYWVQIGGVKGGNWSAPLSAIFTT
B26: CD71-binding FN3 domain of SEQ ID NO: 192 (designed binder)
chain: B9 chain with W38F, A41L, K43L, R70W, W72Q, V80W, W81G, R83N
B27: CD71-binding FN3 domain of SEQ ID NO: 193 (designed binder)
chain: B9 chain with W38F, A41L, K43L, R70W, W72Q, V80N, R83E
B28: CD71-binding FN3 domain of SEQ ID NO: 209 (designed binder)
chain: B14 chain with V36A, A38F, P40R, V41T, R42W, E80D, S83R, L84P
B29: CD71-binding FN3 domain of SEQ ID NO: 215 (designed binder)
chain: B9 chain with F33L, W38F, A41L, K43L, R70W, W72Q, V80N, R83A
B30: CD71-binding FN3 domain of SEQ ID NO: 190 (designed binder)
chain: B9 chain with V11I, W38F, A41L, K43L, R70W, W72Q, V80N, R83A, F89S
B31: CD71-binding FN3 domain of SEQ ID NO: 195 (designed binder)
chain: B9 chain with V10I, W38F, A41L, K43L, R70W, W72Q, G79S, V80N, R83A
B32: CD71-binding FN3 domain of SEQ ID NO: 201 (designed binder)
chain: MSLPAPKNLVVSRVTEDSARLSWTAPDAAFDSFEIAYFEGTFHGEAIVLFVPGSERSYDLTGLKPGTEYAVWIGGVKGGDYSRPLSAAFTT
B33: CD71-binding FN3 domain of SEQ ID NO: 200 (designed binder)
chain: B9 chain with W38F, A41L, K43L, R70W, W72Q, G79S, V80N, R83A
B34: CD71-binding FN3 domain of SEQ ID NO: 202 (designed binder)
chain: B9 chain with W38F, A41L, K43L, R70Y, W72H, V80I, R83S
B35: CD71-binding FN3 domain of SEQ ID NO: 121 (designed binder)
chain: MSLPAPKNLVVSRVTEDSARLSWTAPDAAFDSFFIGYLEPQPPGEAITLYVPGSERSYDLTGLKPGTEYNVTIQGVKGGFPSAPLSAIFTT
B36: CD71-binding FN3 domain of SEQ ID NO: 127 (designed binder)
chain: B35 chain with Y50L, A83G, S86Q, I88S

biological target: T1, human CD71 extracellular domain (human, UniProt P02786 89-760); test: primary ELISA; also: test concentration or dose not given here
T1 construct: also called hCD71; human CD71-ECD
T1 sequence (P02786 89-760): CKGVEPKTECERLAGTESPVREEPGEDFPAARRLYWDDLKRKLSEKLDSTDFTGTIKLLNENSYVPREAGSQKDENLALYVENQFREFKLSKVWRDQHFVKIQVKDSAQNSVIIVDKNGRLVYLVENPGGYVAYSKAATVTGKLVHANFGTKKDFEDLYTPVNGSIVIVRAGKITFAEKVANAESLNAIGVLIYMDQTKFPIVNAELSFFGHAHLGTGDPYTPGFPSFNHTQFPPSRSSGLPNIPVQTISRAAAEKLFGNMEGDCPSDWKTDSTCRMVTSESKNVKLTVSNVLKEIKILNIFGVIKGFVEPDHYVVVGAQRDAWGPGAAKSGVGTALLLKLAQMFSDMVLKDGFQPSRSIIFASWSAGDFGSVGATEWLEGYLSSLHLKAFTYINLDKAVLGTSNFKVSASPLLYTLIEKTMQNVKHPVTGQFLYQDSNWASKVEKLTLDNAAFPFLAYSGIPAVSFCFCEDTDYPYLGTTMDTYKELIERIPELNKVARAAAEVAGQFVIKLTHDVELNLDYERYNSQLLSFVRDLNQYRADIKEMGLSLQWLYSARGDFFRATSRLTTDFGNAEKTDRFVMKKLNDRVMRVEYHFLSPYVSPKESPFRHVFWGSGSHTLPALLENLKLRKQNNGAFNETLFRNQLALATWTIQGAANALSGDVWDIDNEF

RLU [RLU]	Binder
4.51e+06	B1
4.57e+06	B2
3.64e+06	B3
4.25e+06	B4
2.49e+06	B5
1.83e+06	B6
4.62e+06	B7
2.26e+06	B8
3.06e+06	B9
3.37e+06	B10
2.56e+06	B11
4.06e+06	B12
2.33e+06	B13
2.02e+06	B14
2.82e+06	B15
3.58e+06	B16
3.9e+06	B17
2.25e+06	B18

RLU [RLU]	Binder
1.02e+06	B19
4.45e+06	B20
1.11e+06	B21
3.45e+06	B22
2.46e+06	B23
4.2e+06	B24
1.01e+06	B25
2.67e+06	B26
2.33e+06	B27
4.27e+06	B28
3.34e+06	B29
3.66e+06	B30
2.88e+06	B31
1.59e+06	B32
3.49e+06	B33
1.11e+06	B34
5.42e+06	B35
4.73e+06	B36

biological target: T2, apical domain of cynomolgus CD71 (cynomolgus, UniProt A0A2K5X958 189-383); test: primary ELISA; also: test concentration or dose not given here
T2 construct: domain: apical domain; also called Cyno apical domain
T2 sequence (A0A2K5X958 entry or part of it): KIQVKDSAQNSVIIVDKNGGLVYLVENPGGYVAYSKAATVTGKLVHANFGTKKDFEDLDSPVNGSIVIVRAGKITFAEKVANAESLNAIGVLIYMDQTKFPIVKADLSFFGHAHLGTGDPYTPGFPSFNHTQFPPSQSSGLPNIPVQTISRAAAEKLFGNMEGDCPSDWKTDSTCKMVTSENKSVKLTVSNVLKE

RLU [RLU]	Binder
5.2e+06	B1
4.11e+06	B2
5.09e+06	B3
3.62e+06	B4
4.89e+06	B5
5.11e+06	B6
5.56e+06	B7
4.08e+06	B8
4.22e+06	B9
5.04e+06	B10
3.78e+06	B11
5.45e+06	B12
3.98e+06	B13
4.67e+06	B14
5.13e+06	B15
4.94e+06	B16
5.33e+06	B17
4.85e+06	B18

RLU [RLU]	Binder
4.1e+06	B19
4.9e+06	B20
3.37e+06	B21
4.87e+06	B22
4.74e+06	B23
4.99e+06	B24
4.2e+06	B25
3.91e+06	B26
3.95e+06	B27
5.07e+06	B28
4.95e+06	B29
5.2e+06	B30
4.2e+06	B31
3.01e+06	B32
4.72e+06	B33
3.51e+06	B34
6.22e+06	B35
6.52e+06	B36

biological target: T1, human CD71 extracellular domain; test: primary ELISA, signal ratio to HSA

hCD71:HSA	Binder
108	B1
141	B2
109	B3
305	B4
159	B5
138	B6
215	B7
148	B8
67	B9
80	B10
52	B11
142	B12
43	B13
76	B14
97	B15
22	B16
49	B17
168	B18

hCD71:HSA	Binder
53	B19
170	B20
33	B21
1380	B22
130	B23
92	B24
36	B25
61	B26
68	B27
356	B28
48	B29
48	B30
106	B31
40	B32
127	B33
58	B34
109	B35
188	B36

biological target: T2, apical domain of cynomolgus CD71; test: primary ELISA, signal ratio to HSA

Cyno apical domain:HSA	Binder
125	B1
127	B2
153	B3
259	B4
313	B5
387	B6
259	B7
267	B8
93	B9
119	B10
77	B11
19	B12
74	B13
177	B14
176	B15
31	B16
67	B17
362	B18

Cyno apical domain:HSA	Binder
213	B19
187	B20
100	B21
1950	B22
251	B23
109	B24
148	B25
90	B26
116	B27
423	B28
71	B29
68	B30
155	B31
76	B32
172	B33
184	B34
125	B35
259	B36
